From paper PMC12945441 (2022)

Biological target: SARS-CoV-2 Wuhan-Hu-1 receptor-binding domain (SARS-CoV-2 Wuhan-Hu-1)
Test: ELISA

B1: S2X324 mAb (antibody, V domains shown)
VH: QITLKESGPTLVKPTQTLTLTCTFSGFSVTTSGVGVGWIRQPPGKALEYLALIYWDDDKRYSTSLKSRLTITKDTSKNQVVLTMTNMDPVDTATYYCARHTIPSIFDYWGQGILVTVSS
VL: QPVLTQPASVSGSPGQSITISCTATSSDVGNYNYVSWYQHHPGKAPKLMIYEVSNRPSGVSNRFSGSKSGNTASLTISGLQAEDEADYYCSSYTSSSLLFGGGTKLTVL
Question: Which IC50 does the source give for B1 here?
Answer: 0.0267 µg/mL
